B1: Ankyrin-2, residues 3571 to 3650; numbered along this chain, Q01484 (parent)
chain: ERLAYIADHLGFSWTELARELDFTEEQIHQIRIENPNSLQDQSHALLKYWLERDGKHATDTNLVECLTKINRMDIVHLME

± gives the uncertainty stated by the source.

The variants in this data set derive from B1. Nature of the data set: abundance fitness (aPCA) (normalised: wild type 0, dead -1); higher = more abundant; growth selection in yeast, the domain comes from the species named. Conditions: Homo sapiens.
Regarding R72T, the abundance fitness was -0.331 ± 0.29. To R72Q belongs -0.137 ± 0.16; to R72S, 0.223 ± 0.26; to G55N, 0.028 ± 0.081. G55C: the abundance fitness is -0.114 ± 0.077. As for G55V, the abundance fitness is -0.038 ± 0.034. To G55K belongs -0.094 ± 0.066; to G55T, -0.026 ± 0.037. To E26H belongs 0.039 ± 0.13; to E26F, -0.282 ± 0.17; to E26N, -0.033 ± 0.11. To E26I belongs -0.045 ± 0.14; to E65A, -0.012 ± 0.052; to E65G, 0.014 ± 0.048. On to E65F, for which the abundance fitness was -0.184 ± 0.17. To E65N belongs -0.231 ± 0.25; to E65Q, -0.017 ± 0.067. To E65D belongs 0.193 ± 0.21; to E65P, 0.015 ± 0.051. To E65L belongs -0.072 ± 0.058. For I6K, the abundance fitness is -0.807 ± 0.45. To I6N belongs -0.6 ± 0.24. To I6P belongs -0.412 ± 0.16; to K69S, -0.049 ± 0.059. With K69V, the abundance fitness was -0.027 ± 0.044. To K69T belongs -0.032 ± 0.062; to K69E, -0.054 ± 0.047.

Consider K69Q, for which the abundance fitness came out at 0 ± 0.066. To K69R belongs 0.005 ± 0.039; to K69G, -0.06 ± 0.041; to K56L, -0.043 ± 0.054.

Take K56V: the abundance fitness was -0.057 ± 0.059. To K56N belongs -0.071 ± 0.1.

Consider L17G, for which the abundance fitness was -1.04 ± 0.094. Regarding L17H, the abundance fitness was -0.91 ± 0.38. For the variant L17E, the abundance fitness was -1.05 ± 0.43. Consider S38F, for which the abundance fitness was -0.155 ± 0.14. As for S38L, the abundance fitness is -0.086 ± 0.043. To S38R belongs -0.096 ± 0.047. To S38H belongs -0.14 ± 0.14; to S38P, -0.832 ± 0.089. To W50R belongs -0.205 ± 0.064; to W50Y, -0.14 ± 0.24; to W50K, 0.063 ± 0.27. As for W50E, the abundance fitness is -0.316 ± 0.1. W50P: the abundance fitness is -0.664 ± 0.059. To W50N belongs -0.041 ± 0.17; to P36I, -0.805 ± 0.44; to P36W, -0.074 ± 0.067. In the case of P36V, the abundance fitness was -0.14 ± 0.066. For the variant P36D, the abundance fitness is -0.031 ± 0.16.

For the variant P36C, the abundance fitness was -0.123 ± 0.1. To P36R belongs -0.076 ± 0.047; to F23W, -0.442 ± 0.085; to F23K, -0.983 ± 0.41. To E52W belongs -0.045 ± 0.12. For E52G, the abundance fitness was -0.146 ± 0.055. To E52V belongs 0.006 ± 0.063; to E52Y, -0.393 ± 0.098. To E52I belongs -0.039 ± 0.11; to T61V, 0.112 ± 0.12; to T61N, -0.244 ± 0.25. To T61Y belongs -0.087 ± 0.14; to T61K, -0.286 ± 0.26. T61E: the abundance fitness was -0.07 ± 0.13.

As for T61L, the abundance fitness was found to be 0.084 ± 0.076.

On to T61H, for which the abundance fitness is -0.038 ± 0.13.

In the case of T61A, the abundance fitness is -0.102 ± 0.063. To N35T belongs -0.071 ± 0.08; to N35K, -0.042 ± 0.12.

As to N35L, the abundance fitness is -0.128 ± 0.067.

With M73P, the abundance fitness is -0.134 ± 0.45. To M73C belongs 0.226 ± 0.48; to E34Y, -0.148 ± 0.13. To E34S belongs -0.018 ± 0.049. Turning to E34V, the abundance fitness was -0.021 ± 0.051. Turning to E34K, the abundance fitness was -0.045 ± 0.16. For I75M, the abundance fitness is 0.076 ± 0.25. In the case of I75E, the abundance fitness was -0.031 ± 0.11. For the variant I75C, the abundance fitness is -0.297 ± 0.28. As to A18F, the abundance fitness is -1.07 ± 0.42. Consider A18V, for which the abundance fitness was -0.687 ± 0.12. Consider A18M, for which the abundance fitness is -0.519 ± 0.19. To A18W belongs -0.859 ± 0.34; to L47P, -1.28 ± 0.16. To L47C belongs -0.163 ± 0.094. For the variant L47D, the abundance fitness is -0.935 ± 0.45.

As for A7M, the abundance fitness was -0.045 ± 0.25.

As to I33V, the abundance fitness is -0.04 ± 0.071.

As for I33C, the abundance fitness is -0.002 ± 0.11.

Consider I33L, for which the abundance fitness was -0.087 ± 0.052. With I33M, the abundance fitness was 0.011 ± 0.11. On to T15S, for which the abundance fitness came out at 0.018 ± 0.053. Take T15V: the abundance fitness is -0.009 ± 0.072. As for T15H, the abundance fitness was -0.309 ± 0.2. To H44A belongs 0.028 ± 0.12; to H44N, 0.051 ± 0.16.

Turning to I70P, the abundance fitness was -1.06 ± 0.13.

With I70Q, the abundance fitness was -0.382 ± 0.18. In the case of I70W, the abundance fitness is -0.789 ± 0.21.

Turning to I70K, the abundance fitness was -0.784 ± 0.49.

Consider N71A, for which the abundance fitness worked out at 0.021 ± 0.099. To N71S belongs -0.028 ± 0.065. On to N71E, for which the abundance fitness is -0.153 ± 0.12. N71G: the abundance fitness was -0.014 ± 0.076.

As for N71C, the abundance fitness was -0.064 ± 0.14. N71Y: the abundance fitness was -0.476 ± 0.36. To K48P belongs -0.848 ± 0.075. To V76N belongs -0.249 ± 0.24; to V76H, -0.084 ± 0.13.

As for V76I, the abundance fitness turned out to be 0.04 ± 0.088. To V76Y belongs -0.196 ± 0.12; to W14S, -0.812 ± 0.12. To W14E belongs -1.13 ± 0.25; to W14Y, -0.31 ± 0.32; to Q40C, -0.16 ± 0.13. Turning to Q40S, the abundance fitness was -0.069 ± 0.075. As for Q40I, the abundance fitness was -0.124 ± 0.3.

On to Q40W, for which the abundance fitness was -0.065 ± 0.095. To Y5G belongs -0.231 ± 0.45; to Y5V, -0.084 ± 0.19; to Y5A, 0.066 ± 0.14.

Turning to Y5R, the abundance fitness was -0.505 ± 0.32. For the variant Q30P, the abundance fitness was -0.825 ± 0.071. Q30S: the abundance fitness was -0.081 ± 0.063. Consider Q30A, for which the abundance fitness was -0.082 ± 0.058. To Q30F belongs -0.023 ± 0.1. Q30E: the abundance fitness stood at 0.005 ± 0.12. Regarding I28E, the abundance fitness was -0.171 ± 0.067. I28G: the abundance fitness is -0.634 ± 0.064. H9K: the abundance fitness was -0.232 ± 0.34.

For H9A, the abundance fitness is -0.113 ± 0.24. On to H9R, for which the abundance fitness was -0.032 ± 0.22. In the case of T24K, the abundance fitness was 0.162 ± 0.17.

Regarding T24E, the abundance fitness is -0.02 ± 0.16. To T24C belongs -0.193 ± 0.18; to T24I, -0.154 ± 0.099; to T24D, 0.064 ± 0.17. To R53P belongs -0.216 ± 0.055; to R53G, -0.117 ± 0.055; to R53D, -0.413 ± 0.16. To R53A belongs -0.052 ± 0.063; to R53W, 0.002 ± 0.079. With L21A, the abundance fitness is -0.086 ± 0.061. To L21Q belongs -0.24 ± 0.095; to L21T, -0.412 ± 0.076. For the variant L21S, the abundance fitness is -0.33 ± 0.069. For the variant R2W, the abundance fitness stood at 0.056 ± 0.24. To R2G belongs -0.208 ± 0.34; to R2P, -0.454 ± 0.39.

On to R2V, for which the abundance fitness worked out at 0.024 ± 0.23. Take S13Y: the abundance fitness was -0.228 ± 0.2. To S13M belongs -0.129 ± 0.18; to N62Q, -0.082 ± 0.089. For the variant N62A, the abundance fitness is -0.001 ± 0.053. N62M: the abundance fitness was 0.018 ± 0.14. To A45H belongs -0.197 ± 0.15.

With A45G, the abundance fitness was -0.231 ± 0.21. To A45V belongs 0.101 ± 0.11; to L39W, -0.045 ± 0.12; to L39E, -0.027 ± 0.058. To L39C belongs -0.017 ± 0.14; to L46V, -0.075 ± 0.46; to L46P, -0.885 ± 0.42. As for L46C, the abundance fitness worked out at 0.184 ± 0.37. In the case of L46A, the abundance fitness turned out to be 0.143 ± 0.2. To L46G belongs -0.574 ± 0.1.

The values above are taken from the Human Domainome abundance scans (Beltran et al. 2025).
